Tested on: OC[C@H](O)c1ccccc1
Assay: purified protein
Details: oxidation to 2-HAP, NAD+, 100 mM acetate pH 6.5, 35 °C, enzyme from C. parapsilosis/pCP-rcr

recombinant RCR (C. parapsilosis/pCP-rcr) (Lodderomyces parapsilosis)
Km: 6.31 ± 0.09 mM
kcat: 3.19 ± 0.22 s⁻¹
kcat/Km: 510 M⁻¹ s⁻¹

Reference: publication PMC4989518, “In situ expression of (R)-carbonyl reductase rebalancing an asymmetric pathway improves stereoconversion efficiency of racemic mixture to (S)-phenyl-1,2-ethanediol in Candida parapsilosis CCTCC M203011” (Microbial Cell Factories, 2016)
